Columns and labels:
[1] = biological target: tick-borne encephalitis virus (TBEV) pr, the pr part of prM (aa 1-88) (tick-borne encephalitis virus strain Neudoerfl); assay: SPR; […] ([…] to 7.8 nM), […], pH 5.5; 1:1 model; […]
[2] = biological target: the molecule itself; assay: SEC-MALS

Molecule | Kd [1] [µM] | stoichiometry N [2]
tick-borne encephalitis virus (TBEV) soluble envelope protein E (sE) (from UniProt P14336 281-680) (domain or fragment) | 0.066 to 10 | 
tick-borne encephalitis virus (TBEV) soluble envelope protein E (sE) (domain or fragment) SRCTHLENRDFVTGTQGTTRVTLVLELGGCVTITAEGKPSMDVWLDAIYQENPAKTREYCLHAKLSDTKVAARCPTMGPATLAEEHQGGTVCKRDQSDRGWGNHCGLFGKGSIVACVKAACEAKKKATGHVYDANKIVYTVKVEPHTGDYVAANETHSGRKTASFTISSEKTILTMGEYGDVSLLCRVASGVDLAQTVILELDKTVEHLPTAWQVHRDWFNDLALPWKHEGAQNWNNAERLVEFGAPHAVKMDVYNLGDQTGVLLKALAGVPVAHIEGTKYHLKSGHVTCEVGLEKLKMKGLTYTMCDKTKFTWKRAPTDSGHDTVVMEVTFSGTKPCRIPVRAVAHGSPDVNVAMLITPNPTIENNGGGFIEMQLPPGDNIIYVGELSHQWFQKGSSIG |  | 2

Reference: publication PMC9239988 (Nature Communications, 2022)
